No end group written: not given here.
T1: DGI-2 polypeptide (UniProt Q15004 1-111, limits assumed)
T1 construct: Soluble recombinant protein coated at 500 ng/well; vector tag of pIVEX2.3-MCS not described for this construct; also called KIAA0101
T1 sequence (looked up): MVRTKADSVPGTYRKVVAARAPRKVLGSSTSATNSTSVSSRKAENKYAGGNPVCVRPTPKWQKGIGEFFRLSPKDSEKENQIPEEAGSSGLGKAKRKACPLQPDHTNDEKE

T2: DGI-2 (UniProt Q15004 1-111, limits assumed)
T2 construct: Soluble recombinant DGI-2 made by in vitro translation (RTS, pIVEX2.3-MCS vector) and coated on plates for the ELISA; vector tag not described; also called KIAA0101; DGI-2 polypeptide
T2 sequence (looked up): T1 sequence (looked up)

B1: DGI-2-20F-PP-B2 (peptide)
peptide: RSYPRLCKQKGGVIGRMLPGAAAGAPVPYPDPLEPRP
B2: DGI-2-20F-PP-A3 (peptide)
peptide: SLFERSARSRYHGSPDCNGSAAAGAPVPYPDPLEPRP
B3: DGI-2-20F-PP-C10 (peptide)
peptide: DRSRAPLCADKSGRWQRYRRAAAGAPVPYPDPLEPRP
B4: DGI-2-20F-PP-E6 (peptide)
peptide: EVFVSVWVFRFRVMPVTPGGTAAAGAPVPYPDPLEPRP
B5: DGI-2-20F-P0P-D6 (peptide)
peptide: GITGLFCLCLRSSQSIAAAGAPVPYPDPLEPRP
B6: DGI-2-20F-PP-B3 (peptide)
peptide: RGSLLLTLPRLSGAVGTAYGAAAGAPVPYPDPLEPRP
B7: DGI-2-20F-PP-F10 (peptide)
peptide: VVHTRAWGSWAYGFVLRNRGAAAGAPVPYPDPLEPRP
B8: DGI-2-20F-PP-A22 (peptide)
peptide: VCSGGKGTWLEIPDRVRSSTAAAGAPVPYPDPLEPRP
B9: DGI-2-20F-PP-F1 (peptide)
peptide: ERVSKCVGRGSGRSVGQFGGAAAGAPVPYPDPLEPRP
B10: DGI-2-20F-PP-D9 (peptide)
peptide: VRAVYSRDAYNEVGRWMRVGIAAAGAPVPYPDPLEPRP
B11: DGI-2-20F-PP-C9 (peptide)
peptide: YAMSSRECGIRNSGLILSMWAAAGAPVPYPDPLEPRP
B12: DGI-2-20F-PP-A4 (peptide)
peptide: RVSYEMLGRRRRSMHGSSMRAAAGAPVPYPDPLEPRP
B13: DGI-2-20F-PP-C7 (peptide)
peptide: SSVWATWGSDLRTFGSVGFLAAAGAPVPYPDPLEPRP
B14: DGI-2-20F-PP-A6 (peptide)
peptide: VCGQRVARMQLNKTIRKLDSAAAGAPVPYPDPLEPRP
B15: DGI-2-20F-PP-C3 (peptide)
peptide: LGRTFVWGTCLHLSVSRFGHAAAGAPVPYPDPLEPRP
B16: DGI-2-20F-PP-C4 (peptide)
peptide: SIILAGCVWVMPCGQNLGGVAAAGAPVPYPDPLEPRP
B17: DGI-2-20F-PP-H10 (peptide)
peptide: GRAGTSMTELVAWGFVQRVGAAAGAPVPYPDPLEPRP
B18: DGI-2-20R-4-E6 (peptide)
peptide: VLGADAGMIWFMDGCGIRCR
modifications: not fully specified; cysteine pairing not given here
notes: on M13 phage, pIII fusion with E-tag
B19: DGI-2-20R-3-B1 (peptide)
peptide: WWERFVWGRPVDDGVVVMAT
notes: as for B18
B20: DGI-2-20R-3-A2 (peptide)
peptide: QMSRVAFSPGESWRRWVEGV
notes: as for B18
B21: DGI-2-20R-4-G99 (peptide)
peptide: DQRVVGSGWFERLRNWYDRA
notes: as for B18
B22: DGI-2-20R-4-G122 (peptide)
peptide: RDTMCGSVSWGIPGCEYSGM
modifications: not fully specified; cysteine pairing not given here
notes: as for B18
B23: DGI-2-20R-3-A8 (peptide)
peptide: RSIRLQLIDEACQFFDGLCT
modifications: not fully specified; cysteine pairing not given here
notes: as for B18
B24: DGI-2-20R-3-C1 (peptide)
peptide: LFSATGCALMSGFCLGSDGS
modifications: not fully specified; cysteine pairing not given here
notes: as for B18
B25: DGI-2-20R-3-C2 (peptide)
peptide: RDTTSQWSWISRGWEFPGWR
notes: as for B18
B26: DGI-2-20R-3-D2 (peptide)
peptide: FRMWVQSCFWGQPGTGCGEG
modifications: not fully specified; cysteine pairing not given here
notes: as for B18
B27: DGI-2-20R-3-B10 (peptide)
peptide: QLDCLVWGLPGLRCDRPLEQ
modifications: not fully specified (bridges); cysteine pairing not given here
notes: as for B18
B28: DGI-2-20R-3-D127 (peptide)
peptide: SWACGLLWPGECGSQVARRG
modifications: not fully specified; cysteine pairing not given here
notes: as for B18
B29: DGI-2-40F-4-F97 (peptide)
peptide: QVGGMTQVGATVLSVVTGRGSCDGEDAWYPPGVTVGLGLC
notes: as for B18
B30: DGI-2-20R-4-G22 (peptide)
peptide: VSFAHDWGRWWYQWEVG
notes: as for B18
B31: DGI-2-20R-3-C3 (peptide)
peptide: TIDVARRFGYGWWDLWLDGD
notes: as for B18
B32: DGI-2-40F-3-D1044 (peptide)
peptide: DRVARLATPTAGTMAAGSLGYERTVGCDSQDWFRCVVEGL
notes: as for B18
B33: DGI-2-20R-4-H112 (peptide)
peptide: SLECWAMPGMVVRLVGCDGP
modifications: not fully specified (bridges); cysteine pairing not given here
notes: as for B18
B34: DGI-2-20F-PP-F1 (peptide)
peptide: ERVSKCVGRGSGRSVGQFGG
notes: as for B18
B35: DGI-2-20R-3-A11 (peptide)
peptide: WAASCFWGHVALGCGRNGQG
modifications: not fully specified (bridges); cysteine pairing not given here
notes: as for B18
B36: DGI-2-20F-PP-A6 (peptide)
peptide: VCGQRVARMQLNKTIRKLDS
notes: as for B18
B37: DGI-2-20F-3-B5 (peptide)
peptide: RERWGTAWNLWTEGVVDVRP
notes: as for B18
B38: DGI-2-20R-3-D9 (peptide)
peptide: WGCVFRQWASGSGAGCARRH
modifications: not fully specified; cysteine pairing not given here
notes: as for B18
B39: DGI-2-20R-3-A1 (peptide)
peptide: EGNWFCAVFRGFCVGDRGPE
modifications: not fully specified (bridges); cysteine pairing not given here
notes: as for B18
B40: DGJ-2-20R-3-A10 (peptide)
peptide: RRILPWSFPGCGRMC
modifications: not fully specified; cysteine pairing not given here
notes: as for B18

molecular target: T1, DGI-2 polypeptide; experiment: phage ELISA
Protocol: (§1) For analysis of individual target binders, colonies were picked and phage prepared as described above using helper phage, M13KO7. Ninety-six-well microtiter plates were coated with 500 ng/well of specific target protein, 500 ng/well lactate dehydrogenase (LDH) irrelevant or non-specific target, 500 ng/well of positive control antibody raised against ETAG, and negative control of non-fat milk powder-PBS 2% at 4° C. overnight. Plates were then blocked with 350 microliters/well PBS containing 2% non-fat milk for 1 hr at room temperature. One hundred microliters per well of phage from isolated clones were added and plates were incubated at room temperature for 2 hr after centrifuging samples for 20 minutes at 3500 rpm at 4° C. The phage solution was then removed, and the wells were washed three times with PBS at room temperature. Antibody raised against M13 conjugated to horseradish peroxidase (Pharmacia) was diluted 1:3000 in PBS-Tween and added to each well (100 µl/well). Incubation was for 1 hr at room temperature, followed by washing with PBS-(0.5%) Tween 3 times as described. Color was developed by addition of ABTS solution (100 µl/well; Boehringer, Indianapolis, Ind.). Plates were analyzed at 405 nm. A clone was considered "positive" if the $A405$ of the well was $\geq$2-fold over background.

Point of comparison: B8, “DGI-2 (OD)” value 3.3 OD. Against it:
- B1 — the same, 3.3 OD
- B2 — lower, 2.8 OD
- B3 — lower, 2.7 OD
- B4 — lower, 3 OD
- B5 — the same, 3.3 OD
- B6 — higher, 3.4 OD
- B7 — higher, 3.5 OD
- B9 — lower, 3 OD
- B10 — lower, 2.9 OD
- B11 — higher, 3.5 OD
- B12 — lower, 2.7 OD
- B13 — lower, 3 OD
- B14 — lower, 3.1 OD
- B15 — higher, 5.3 OD
- B16 — lower, 3 OD

Point of comparison: B16, DGI-2/LDH 3.2 ratio. Against it:
- B1 — lower, 2.9 ratio
- B2 — lower, 2.4 ratio
- B3 — lower, 3.1 ratio
- B4 — lower, 2.6 ratio
- B5 — the same, 3.2 ratio
- B6 — lower, 3 ratio
- B7 — lower, 2.8 ratio
- B8 — lower, 3.1 ratio
- B9 — higher, 3.4 ratio
- B10 — lower, 2.9 ratio
- B11 — higher, 3.9 ratio
- B12 — lower, 2.6 ratio
- B13 — lower, 2.6 ratio
- B14 — lower, 2.8 ratio
- B15 — higher, 5.1 ratio

molecular target: T3, lactate dehydrogenase (LDH); experiment: phage ELISA
T3 construct: Coated at 500 ng/well as non-specific target; also called LDH polypeptide
Protocol: as §1

Point of comparison: B9, “LDH (OD)” value 0.9 OD. Against it:
- B1 — higher, 1.1 OD
- B2 — higher, 1.2 OD
- B3 — the same, 0.9 OD
- B4 — higher, 1.2 OD
- B17 — lower, 0.7 OD
- B5 — higher, 1 OD
- B6 — higher, 1.1 OD
- B7 — higher, 1.3 OD
- B8 — higher, 1 OD
- B10 — higher, 1 OD
- B11 — the same, 0.9 OD
- B12 — higher, 1.1 OD
- B13 — higher, 1.1 OD
- B14 — higher, 1.1 OD
- B15 — higher, 1 OD
- B16 — the same, 0.9 OD

molecular target: T4, antibody raised against ETAG; experiment: phage ELISA
T4 construct: Coated at 500 ng/well; also called E-tag antibody
Protocol: as §1

Point of comparison: B14, “ETAG (OD)” value 35.1 OD. Against it:
- B1 — higher, 35.9 OD
- B2 — lower, 12.9 OD
- B3 — lower, 8.6 OD
- B4 — lower, 4.1 OD
- B17 — lower, 13 OD
- B5 — lower, 5.7 OD
- B6 — lower, 11.7 OD
- B7 — higher, 42.5 OD
- B8 — higher, 44.1 OD
- B9 — lower, 11.1 OD
- B10 — lower, 9 OD
- B11 — lower, 31.6 OD
- B12 — lower, 6.6 OD
- B13 — lower, 11 OD
- B15 — higher, 39.9 OD
- B16 — higher, 36.1 OD

molecular target: T2, DGI-2; experiment: phage ELISA, coated DGI-2
Protocol: as §1

B18: binds.
B19: binds.
B20: binds.
B21: binds.
B22: binds.
B23: binds.
B24: binds.
B25: binds.
B26: binds.
B27: binds.
B28: binds.
B29: binds.
B30: binds.
B31: binds.
B32: binds.
B33: binds.
B34: binds.
B35: binds.
B36: binds.
B37: binds.
B38: binds.
B39: binds.
B40: binds.
